This data set has as its target T1, IntC3 (mutant phage lambda integrase) (Enterobacteria phage lambda) (UniProt P03700).
T1 sequence: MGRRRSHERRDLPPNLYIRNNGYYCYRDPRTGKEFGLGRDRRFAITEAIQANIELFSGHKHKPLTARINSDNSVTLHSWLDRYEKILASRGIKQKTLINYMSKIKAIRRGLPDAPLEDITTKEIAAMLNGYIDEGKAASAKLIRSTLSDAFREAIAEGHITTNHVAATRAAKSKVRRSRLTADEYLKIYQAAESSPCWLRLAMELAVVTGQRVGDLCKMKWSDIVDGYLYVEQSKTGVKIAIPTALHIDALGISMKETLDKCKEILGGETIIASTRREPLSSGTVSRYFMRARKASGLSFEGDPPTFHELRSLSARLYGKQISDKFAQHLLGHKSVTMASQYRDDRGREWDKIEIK
Kind of data set: cell_activity. Particulars: E. coli MG1655-ISC, scIHF2 co-expressed, arabinose 70 min.

The record followed here is patent US20240175038.

Consider 21 bp attB homologue in pattPhae2(attL), for which, for the setting “recombination with attL homologue”, the activity (% recombination) is more than 90. Turning to “121 bp attL homologue in pattPhae2(attL)”, the activity (% recombination) (recombination with attB homologue) is more than 90.
